# Data taken from article PMC4355076 (Molecular cell, 2015).
# Substitutions are numbered along the chain they refer to. In names and notes the source's numbering stands.
# T1: UCH37(M148A,F149A) (human, UniProt Q9Y5K5 1-329, M148A | F149A)
# T1 sequence (looked up): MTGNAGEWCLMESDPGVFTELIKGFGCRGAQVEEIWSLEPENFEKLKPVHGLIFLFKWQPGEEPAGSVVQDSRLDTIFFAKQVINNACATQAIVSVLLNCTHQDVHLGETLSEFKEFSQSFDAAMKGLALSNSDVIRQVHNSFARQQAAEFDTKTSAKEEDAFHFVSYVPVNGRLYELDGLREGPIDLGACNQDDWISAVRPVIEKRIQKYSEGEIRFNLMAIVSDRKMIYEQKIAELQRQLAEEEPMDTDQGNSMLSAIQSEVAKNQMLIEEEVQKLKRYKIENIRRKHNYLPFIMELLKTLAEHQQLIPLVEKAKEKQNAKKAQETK
# T2: human UCH37 (isoform 1), full-length (human, UniProt Q9Y5K5 1-329)
# T2 sequence (looked up): T1 sequence (looked up) with A148M, A149F
# T3: human UCH37 isoform 2 (human, UniProt Q9Y5K5 1-329, deleting the codon for E246)
# T3 sequence (looked up): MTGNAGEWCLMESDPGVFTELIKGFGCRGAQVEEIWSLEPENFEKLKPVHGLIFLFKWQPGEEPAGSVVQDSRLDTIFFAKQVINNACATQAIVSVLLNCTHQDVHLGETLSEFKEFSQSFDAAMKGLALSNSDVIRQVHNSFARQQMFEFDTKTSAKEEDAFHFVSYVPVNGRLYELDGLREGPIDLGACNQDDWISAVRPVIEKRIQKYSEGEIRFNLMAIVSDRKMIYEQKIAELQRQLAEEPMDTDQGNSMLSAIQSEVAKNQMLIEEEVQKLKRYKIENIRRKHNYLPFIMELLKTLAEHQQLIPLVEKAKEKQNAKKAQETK
# T4: human UCH37 isoform 1, co-expressed with NFRKB (human, UniProt Q9Y5K5 1-329)
# T4 sequence (looked up): T1 sequence (looked up) with A148M, A149F
# B1: human RPN13^285-407 (domain or fragment)
# chain: GSWTQVDLASVLTPEIMAPILANADVQERLLPYLPSGESLPQTADEIQNTLTSPQFQQALGMFSAALASGQLGPLMCQFGLPAEAVEAANKGDVEAFAKAMQNNAKPEQKEGDTKDKKDEEEDMSLD
# B2: RPN13(Q337A,Q338A)^285-407 (domain or fragment, human)
# chain: B1 chain with Q57A, Q58A
# B3: NFRKB^1-156 (domain or fragment, human, UniProt Q6P4R8 1-156, looked up)
# chain: MDSLDHMLTDPLELGPCGDGHGTRIMEDCLLGGTRVSLPEDLLEDPEIFFDVVSLSTWQEVLSDSQREHLQQFLPQFPEDSAEQQNELILALFSGENFRFGNPLHIAQKLFRDGHFNPEVVKYRQLCFKSQYKRYLNSQQQYFHRLLKQILASRSD
# B4: NFRKB^1-156(^97GSGS^100) (domain or fragment, human, UniProt Q6P4R8 1-156, looked up)
# chain: B3 chain with N97G, F98S, R99G, F100S
# B5: NFRKB^39-156 (domain or fragment, human, UniProt Q6P4R8 39-156, looked up)
# chain: PEDLLEDPEIFFDVVSLSTWQEVLSDSQREHLQQFLPQFPEDSAEQQNELILALFSGENFRFGNPLHIAQKLFRDGHFNPEVVKYRQLCFKSQYKRYLNSQQQYFHRLLKQILASRSD
# B6: NFRKB^1-117 (domain or fragment, human, UniProt Q6P4R8 1-117, looked up)
# chain: MDSLDHMLTDPLELGPCGDGHGTRIMEDCLLGGTRVSLPEDLLEDPEIFFDVVSLSTWQEVLSDSQREHLQQFLPQFPEDSAEQQNELILALFSGENFRFGNPLHIAQKLFRDGHFN
# B7: UCH37(M269E,N291D) (enzyme, human, UniProt Q9Y5K5 1-329, looked up)
# chain: T1 sequence (looked up) with A148M, A149F, M269E, N291D
# How the values were obtained:
# UCH37(M148A,F149A) = target: T1, UCH37(M148A,F149A); test: cell-based or functional assay
# [1] = target: T2, human UCH37 (isoform 1), full-length; test: cell-based or functional assay
# human UCH37 isoform 2 = target: T3, human UCH37 isoform 2; test: cell-based or functional assay
# human ubiquitin = human ubiquitin (human, UniProt P0CG48 1-76); test: cell-based or functional assay
# [2] = target: T4, human UCH37 isoform 1, co-expressed …; test: cell-based or functional assay
# AUC = target: the molecule itself; test: AUC
binder,measurement,setting,value
B1,"kcat of ubiquitin-AMC hydrolysis by the UCH37(M148A,F149A)/RPN13^285-407 complex","UCH37(M148A,F149A)",4.7 s⁻¹
same,kcat of ubiquitin-AMC hydrolysis by the UCH37/RPN13^285-407 complex,[1],5 s⁻¹
same,kcat/Km of ubiquitin-AMC hydrolysis by the UCH37/RPN13^285-407 complex,[1],1.6 s^−1μM^−1
same,kcat of ubiquitin-AMC hydrolysis by the UCH37(isoform2)/RPN13^285-407 complex,human UCH37 isoform 2,4.7 s⁻¹
same,kcat/Km of ubiquitin-AMC hydrolysis by the UCH37(isoform2)/RPN13^285-407 complex,human UCH37 isoform 2,1.4 s^−1μM^−1
B2,"kcat of ubiquitin-AMC hydrolysis by the UCH37/RPN13(Q337A,Q338A)^285-407 complex",human ubiquitin,4.7 s⁻¹
B3,kcat of ubiquitin-AMC hydrolysis by the UCH37/NFRKB^1-156 complex,[2],0.1 s⁻¹
same,kcat/Km of ubiquitin-AMC hydrolysis by the UCH37/NFRKB^1-156 complex,[2],0.006 s^−1μM^−1
B4,kcat of ubiquitin-AMC hydrolysis by the UCH37/NFRKB^1-156(^97GSGS^100) complex,[2],5.94 s⁻¹
B5,kcat of ubiquitin-AMC hydrolysis by the UCH37/NFRKB^39-156 complex,[2],0.25 s⁻¹
same,kcat/Km of ubiquitin-AMC hydrolysis by the UCH37/NFRKB^39-156 complex,[2],0.009 s^−1μM^−1
B6,kcat of ubiquitin-AMC hydrolysis by the UCH37/NFRKB^1-117 complex,[2],0.15 s⁻¹
same,kcat/Km of ubiquitin-AMC hydrolysis by the UCH37/NFRKB^1-117 complex,[2],0.005 s^−1μM^−1
B7,Kd,AUC,49 µM
